Laboratory results reported in PMC9754288.

Target: SAP11_(CaPm) from 'Ca. P. mali' strain STAA, split-YFP fusion for BiFC ('Candidatus Phytoplasma mali' strain STAA)
Test: split reporter (BiFC, NanoBiT); BiFC with split YFP from pBiFC-2in1 vectors in Nicotiana benthamiana mesophyll protoplasts; confocal microscopy 16 h after transformation; RFP marks transformed protoplasts

Work on “MdTCP16, split-YFP fusion for BiFC (natural protein)” yielded a percent of transformed protoplasts with a YFP signal of under 92.5%.
